Target: Sp1 (UniProt P08047 2-785)
Test: EMSA; recombinant Sp1; supershift with Sp1 antibody; LightShift Chemiluminescent EMSA kit (Pierce), 25 °C, 20 min, 6% PAGE; 100-fold unlabeled competitor; buffer, salt and pH not stated
Details: protein: commercial; label: 3' biotin; blunt

Sequence of Sp1 (P08047 2-785): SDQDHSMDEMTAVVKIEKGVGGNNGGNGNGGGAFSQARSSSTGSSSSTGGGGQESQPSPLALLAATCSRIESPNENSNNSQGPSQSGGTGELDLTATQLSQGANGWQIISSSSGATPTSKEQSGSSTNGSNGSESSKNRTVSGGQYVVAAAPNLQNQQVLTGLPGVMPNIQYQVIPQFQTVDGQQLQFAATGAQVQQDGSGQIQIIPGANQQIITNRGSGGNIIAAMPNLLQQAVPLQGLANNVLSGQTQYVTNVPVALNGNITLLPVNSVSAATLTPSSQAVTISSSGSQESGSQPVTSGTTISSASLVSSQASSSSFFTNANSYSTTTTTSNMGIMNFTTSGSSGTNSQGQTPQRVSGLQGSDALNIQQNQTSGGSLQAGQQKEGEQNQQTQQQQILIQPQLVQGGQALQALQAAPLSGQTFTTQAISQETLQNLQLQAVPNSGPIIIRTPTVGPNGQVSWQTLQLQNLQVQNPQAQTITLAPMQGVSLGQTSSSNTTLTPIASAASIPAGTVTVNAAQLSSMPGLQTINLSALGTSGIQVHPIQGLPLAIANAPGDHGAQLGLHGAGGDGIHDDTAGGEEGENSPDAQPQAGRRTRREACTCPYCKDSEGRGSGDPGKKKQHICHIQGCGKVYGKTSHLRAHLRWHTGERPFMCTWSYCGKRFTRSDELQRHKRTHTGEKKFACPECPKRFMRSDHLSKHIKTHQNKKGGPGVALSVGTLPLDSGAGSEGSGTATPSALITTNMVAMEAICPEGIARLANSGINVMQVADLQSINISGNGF

B1: MMP13 rs2252070G probe (dsDNA)
DNA 1: CCTTCAAGTGACTGGGAAGTGGAAACCT
DNA 2: AGGTTTCCACTTCCCAGTCACTTGAAGG
binding result: binds

— publication PMC4887914, “The Sp1-mediaded allelic regulation of MMP13 expression by an ESCC susceptibility SNP rs2252070”
